Experimental findings from patent US20030068675, “Position dependent recognition of GNN nucleotide triplets by zinc fingers” (published 2003) are described below.

Numbering of substitutions follows the chain as printed.

Common to all, as to assay: EMSA
Common to all, as to settings: tags: MBP fusion

The target of one series is ZFP SBS#1079 (synthetic, UniProt P08047). In outline: (§1)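 Purified ZFP was titrated against labeled double-stranded target (1 nM or lower, at least 10-fold below expected Kd) carrying the natural binding site with flanks. Binding buffer was 10 mM Tris pH 7.5, 100 mM KCl, 1 mM MgCl2, 0.1 mM ZnCl2, 5 mM DTT, 10% glycerol, 0.02% BSA, with equilibration for at least 45 min. Bound and free target were separated on a 10% polyacrylamide gel.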

For another series, the target named is ZFP SBS#1078 (synthetic, UniProt P08047). In outline: as §1
Chain of ZFP SBS#1078 (P08047 other isoform, or with tags, fused parts or gaps): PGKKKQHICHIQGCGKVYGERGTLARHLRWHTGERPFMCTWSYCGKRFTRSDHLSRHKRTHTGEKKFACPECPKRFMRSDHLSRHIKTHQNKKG
The next series addresses T1, ZFP SBS#1058 (synthetic).
T1 chain: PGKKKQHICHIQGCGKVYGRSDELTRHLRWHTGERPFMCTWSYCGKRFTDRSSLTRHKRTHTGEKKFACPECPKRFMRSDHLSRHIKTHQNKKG
Put shortly:
as §1

The next series deals with T2, ZFP SBS#1059 (synthetic).
T2 chain: T1 chain with S53D
In outline:
as §1

The next series addresses T3, ZFP SBS#980 (synthetic, UniProt P08047).
T3 chain: T1 chain with E23D, D50R, R51S, S52D, S53E, T55Q, H81A, S83R, R84E
In outline: as §1

Another series has as its target ZFP SBS#979 (synthetic, UniProt P08047). Put shortly: as §1
A further series has as its target T4, ZFP SBS#1082 (synthetic).
T4 chain: T1 chain with D50R, R51S, S52D, S53E, H81A, S83R, R84E
Put shortly:
as §1

The target in another series is T5, ZFP SBS#1068 (synthetic).
T5 chain: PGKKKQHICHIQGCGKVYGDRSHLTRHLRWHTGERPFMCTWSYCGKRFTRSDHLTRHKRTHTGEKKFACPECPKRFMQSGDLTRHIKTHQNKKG
Put shortly: as §1

For a further series, the target named is T6, ZFP SBS#1081 (synthetic, UniProt P08047).
T6 chain: T1 chain with E23A, D50R, R51S, S52D, S53N
Put shortly:
as §1

Another series concerns the target ZFP SBS#1072 (synthetic). In outline:
as §1

For the next series, the target named is ZFP SBS#1073 (synthetic). Put shortly: as §1
Chain of ZFP SBS#1073 (synthetic) (chain, as listed by the source): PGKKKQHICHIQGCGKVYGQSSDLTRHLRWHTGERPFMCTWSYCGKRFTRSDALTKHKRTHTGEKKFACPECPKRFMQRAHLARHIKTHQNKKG
A further series addresses T7, ZFP SBS#1069 (synthetic).
T7 chain: T5 chain with D81S
In outline: as §1

In the next series the target is T8, ZFP SBS#1067 (synthetic).
T8 chain: T1 chain with R20T, D22G, E23H, T25V, S53H, T55A, H81N, S83V
Put shortly: as §1

In another series the target is T9, ZFP SBS#1066 (synthetic).
T9 chain: T1 chain with R20Q, D22S, E23H, S53H, T55A, H81N, S83V
In outline: as §1

The next series addresses T10, ZFP SBS#1064 (synthetic).
T10 chain: T1 chain with E23A, D50Q, R51S, S52G, H81E, L82R, S83K
In outline: as §1

The next series deals with T11, ZFP SBS#1077 (synthetic).
T11 chain: T1 chain with D50Q, R51S, S52G, S53D, T55R, H81E, L82R, S83K
In outline:
as §1

For the next series, the target named is T12, ZFP SBS#1076 (synthetic).
T12 chain: T1 chain with D50Q, R51S, S52G, H81E, L82R, S83K
In outline: as §1

Another series has as its target T13, ZFP SBS#1070 (synthetic, UniProt P08047).
T13 chain: T5 chain with R50Q, D52G, H53S, Q78R, G80D, D81H, T83S
Put shortly:
as §1

The target in the next series is T14, ZFP SBS#1071 (synthetic, UniProt P08047).
T14 chain: T5 chain with R50Q, D52G, H53D, Q78R, G80D, D81H, T83S
In outline:
as §1

Another series concerns the target T15, ZFP SBS#1075 (synthetic).
T15 chain: T1 chain with D50R, R51S, S52D, S53A, R56K, H81A, S83T
Put shortly: as §1

The target of a further series is T16, ZFP SBS#1065 (synthetic).
T16 chain: T1 chain with E23H, T25A, S53H, T55A, S83T, R84T
In outline:
as §1

The target of another series is ZFP SBS#1054 (synthetic). Put shortly:
as §1

In the next series the target is T17, ZFP SBS#1055 (synthetic).
T17 chain: T5 chain with D20R, R21S, S22D, T25A, R50Q, D52G, H53S, Q78T
Put shortly: as §1

Another series concerns the target ZFP SBS#1057 (synthetic). In outline:
as §1

A further series has as its target ZFP SBS#1056 (synthetic). Put shortly:
as §1

The target in a further series is T18, ZFP SBS#1060 (synthetic).
T18 chain: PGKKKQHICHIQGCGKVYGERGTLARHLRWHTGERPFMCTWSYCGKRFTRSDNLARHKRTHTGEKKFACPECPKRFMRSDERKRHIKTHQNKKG
In outline:
as §1

Another series deals with T19, ZFP SBS#463 (synthetic).
T19 chain: T18 chain with E20R, R21S, G22D, T23N, A25T, E81A, R82L, K83A
Put shortly:
as §1

For the next series, the target named is T20, ZFP SBS#464 (synthetic).
T20 chain: T18 chain with E20R, R21S, G22D, T23N, A25T, E81S, R82L, K83A
Put shortly:
as §1

The target of a further series is T21, ZFP SBS#1080 (synthetic).
T21 chain: T1 chain with D50R, R51S, S52D, S53N, T55A, H81A, S83R, R84E
In outline:
as §1

The target in a further series is T22, ZFP SBS#1063 (synthetic, UniProt P08047).
T22 chain: T5 chain with D20R, R21S, S22D, T25A, H53E, T55Q, Q78M, G80H, D81A, T83S
In outline: as §1

For a further series, the target named is ZFP SBS#1061 (synthetic). Put shortly:
as §1

For another series, the target named is T23, ZFP SBS#1062 (synthetic).
T23 chain: T5 chain with D20R, R21S, S22D, T25A, H53E, T55Q, Q78T, D81S
In outline:
as §1

Chain of ZFP SBS#1057 (synthetic) (chain, as listed by the source): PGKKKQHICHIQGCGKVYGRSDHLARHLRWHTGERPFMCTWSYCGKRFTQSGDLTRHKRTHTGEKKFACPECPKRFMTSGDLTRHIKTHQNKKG
Chain of ZFP SBS#1061 (synthetic) (chain, as listed by the source): as the sequence (P08047 other isoform, or with tags, fused parts or gaps) above, with E20R, R21S, G22D, T23H, H53E, S55Q, R78Q, D80S, H81A, S83T counted along it
Chain of ZFP SBS#1054 (synthetic) (chain, as listed by the source): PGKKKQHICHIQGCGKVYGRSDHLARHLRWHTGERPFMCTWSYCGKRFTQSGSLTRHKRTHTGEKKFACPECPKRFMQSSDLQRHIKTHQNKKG
Chain of ZFP SBS#1072 (synthetic) (chain, as listed by the source): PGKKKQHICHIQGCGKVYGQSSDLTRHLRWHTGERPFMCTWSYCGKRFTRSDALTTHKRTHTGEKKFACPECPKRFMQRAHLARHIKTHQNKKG

B1: GGGGGGGCC (dsDNA)
DNA 1: GGGGGGGCC
DNA 2: GGCCCCCCC
Turning to B1, the Kd in the series with ZFP SBS#1079 came out at 4.1 nM; in the series with ZFP SBS#1078, 0.2 nM.

B2: GGGGCCGCG (dsDNA)
DNA 1: GGGGCCGCG
DNA 2: CGCGGCCCC
For B2, the Kd with ZFP SBS#1058 stood at 6.28 nM; with ZFP SBS#1059, 0.152 nM.

B3: CTGGCGGCG (dsDNA)
DNA 1: CTGGCGGCG
DNA 2: CGCCGCCAG
As for B3, the Kd with ZFP SBS#980 turned out to be 2.2 nM; in the series with ZFP SBS#979 it was 1.59 nM; in the series with ZFP SBS#1082 it was 0.152 nM.

B4: GCAGGGGGC (dsDNA)
DNA 1: GCAGGGGGC
DNA 2: GCCCCCTGC
Molecule B4 returned a Kd with ZFP SBS#1068 of 2.05 nM.

B5: GGGGAGGTG (dsDNA)
DNA 1: GGGGAGGTG
DNA 2: CACCTCCCC
Consider B5, for which, in the series with ZFP SBS#1081, the Kd was determined as 0.05 nM.

B6: GGATTGGCT (dsDNA)
DNA 1: GGATTGGCT
DNA 2: AGCCAATCC
B6: the Kd in the series with ZFP SBS#1072 turned out to be 0.46 nM; with ZFP SBS#1073, 1.37 nM.

B7: GCAGGCGGT (dsDNA)
DNA 1: GCAGGCGGT
DNA 2: ACCGCCTGC
B7 had a dissociation constant (Kd) in the series with ZFP SBS#1069 of 0.1 nM.

B8: GAGGGCGGT (dsDNA)
DNA 1: GAGGGCGGT
DNA 2: ACCGCCCTC
Consider B8, for which the figures for the Kd in the series with ZFP SBS#1067 and in the series with ZFP SBS#1066 were 1.37 nM and 0.15 nM, respectively.

B9: GCGGCAGTG (dsDNA)
DNA 1: GCGGCAGTG
DNA 2: CACTGCCGC
In turn, B9 showed a Kd with ZFP SBS#1064 of 0.453 nM.

B10: GCGGCAGCG (dsDNA)
DNA 1: GCGGCAGCG
DNA 2: CGCTGCCGC
For the molecule B10, the Kd with ZFP SBS#1077 turned out to be 6.2 nM; in the series with ZFP SBS#1076 it was 4.1 nM.

B11: GGGGCAGGC (dsDNA)
DNA 1: GGGGCAGGC
DNA 2: GCCTGCCCC
As to B11, the Kd turned out to be 0.456 nM with ZFP SBS#1070 and 0.2 nM in the series with ZFP SBS#1071.

B12: GTGTTGGCG (dsDNA)
DNA 1: GTGTTGGCG
DNA 2: CGCCAACAC
B12: in the series with ZFP SBS#1075, the Kd turned out to be 0.915 nM.

B13: TGGGGCGGG (dsDNA)
DNA 1: TGGGGCGGG
DNA 2: CCCGCCCCA
Turning to B13, binding in the series with ZFP SBS#1065 was put at a Kd of 1.37 nM.

B14: GCTGCAGGG (dsDNA)
DNA 1: GCTGCAGGG
DNA 2: CCCTGCAGC
In the case of B14, the Kd stood at 0.033 nM with ZFP SBS#1054, 18.7 nM with ZFP SBS#1055, 0.483 nM with ZFP SBS#1057 and 0.045 nM with ZFP SBS#1056.

B15: GCGGAGGCC (dsDNA)
DNA 1: GCGGAGGCC
DNA 2: GGCCTCCGC
Consider B15, for which the Kd in the series with ZFP SBS#1060 amounted to 0.69 nM.

B16: GTGGAGGAGA (dsDNA)
DNA 1: GTGGAGGAGA
DNA 2: TCTCCTCCAC
B16: the Kd with ZFP SBS#463 turned out to be 0.5 nM; with ZFP SBS#464, 0.4 nM.

B17: CTGGAGGCG (dsDNA)
DNA 1: CTGGAGGCG
DNA 2: CGCCTCCAG
Molecule B17 showed a Kd with ZFP SBS#1080 of 1.37 nM.

B18: GTTGCGGGG (dsDNA)
DNA 1: GTTGCGGGG
DNA 2: CCCCGCAAC
Take B18: the values for the Kd with ZFP SBS#1063, with ZFP SBS#1061 and with ZFP SBS#1062 were 0.96 nM, 0.165 nM and 0.068 nM, respectively.
